Measured values published in patent US8420311B2, “Method to block the infection by flaviviruses, molecules and uses” (Centro de Ingenieria Genetica y Biotecnologia, priority 2006, dated 2013).

How the values were obtained:
DV2 [1] = type: cell-based, dengue virus; settings: protein 25 μg/mL pre-incubated with virus 1 hour at 25° C.
Description: (§1) FIG. 21. Chromatographic profile of the purification of the A2MR using affinity chormatography with immobilized A2M (A) and SDS-PAGE analysis of fractions eluted using a 5-15% gradient gel (B). Effect of the pre-incubation of chromatography fractions with DV2 on the infection of Vero cells (C). The plaque reduction neutralization assay was performed as described in FIG. 20. (D) Mice protection assay using the DV-induced encephalitis model.
To this aim, a viral preparation containing 100 infective viral particles was pre-incubated with the different fractions at a protein concentration of 25 μg/mL for 1 hour at 25° C. Next, the virus was added to Vero cell monolayers and infection was allowed to occur for 45 minutes at 37° C. Afterwards virus/protein mixtures were removed, the cells were washed with fresh medium and finally the cells were incubated for 5 days at 37° C. in high density medium.

DV2 [2] = assay: Mice protection assay using the DV-induced encephalitis model; type: in vivo, Balb/C mice; settings: intra-cranial lethal dosis of DV2 (FIG. 21D)
Description: as §1
FIG. 22. Mice protection assay using the DV-induced encephalitis model. PepNR GAGs binding: peptide formed by a sequence fragment of binding to glycosaminoglycans and a non-related sequence fragment.
Groups of 12 adult Balb/C mice (20 g average body weight) were anesthesized, inoculated by intracranial injection with lethal dosis of DV2 and observed daily for 21 days. The mixtures of peptides with the virus were inoculated in the same way. The volume of the sample inoculated was 20 μL.
The mouse model of dengue encephalitis was used to investigate the potential of the peptide HDIII3CL to protect against DV2 infection. A group of 12 mice were inoculated with lethal dosis of DV2 in combination with 15 μg and 1.5 μg of HDIII3CL peptide. As negative control was used a peptide composed by fragment of 14 aminoacids of a sequence with known heparin binding activity followed by 16 aminoacids of a sequence non-related to the envelope protein of DV. […]

[3] = molecular target: T1, DIIIE2J (DIII from protein E of DV2) (Dengue virus type 2, UniProt P07564); assay: Direct binding between DIIIE2J and A2M measured by Biacore; design: species or system DV2 strain Jamaica 1409; settings: restated in example 10
T1 construct: made in house; host or cells: Escherichia coli BL21(DE3)
T1 sequence (P07564 568-687, looked up, natural form): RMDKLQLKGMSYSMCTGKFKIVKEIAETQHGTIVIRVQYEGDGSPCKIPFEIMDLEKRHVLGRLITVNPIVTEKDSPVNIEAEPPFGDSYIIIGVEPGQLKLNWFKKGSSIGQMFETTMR
Description: FIG. 6. Direct binding between DIIIE2J and A2M, measured by Biacore. Response curves obtained during and after the injection of (B) Monoclonal antibodies against DV serotype 2 (3H5) and against all FV (4G2); (C) Polyclonal mouse antibody preparations obtained by immunization with DV1 and DV2, including pre-immune sera and (D) A2M dilutions, at concentrations from 0.3 μMol/L to 3 μMol/L. The run was performed on PBS pH 7.4 at 25° C. The different A2M dilutions were loaded at a flow of 5 μL/min for 20 min. The response is represented in resonance units (RU) corrected for unspecific binding using the response from the channel without immobilized protein (less than 5% of the specific signal).
A cm5 chip (Biacore, Sweden) was used for the covalent immobilization of the DIIIE2J and LRP1 proteins. The immobilization was carried out at 25° C., with a flow of 5 μL/min and using HBS (Biacore, Sweden) as running buffer. The surface of the chip was activated by loading 35 μL of 0.2 Mol/L […] (EDC) and 0.05 Mol/L N-hydroxysuccinimide (NHS). Afterwards the proteins, dissolved in 10 mM sodium acetate buffer pH 4.5, were loaded into the system. At the end of the immobilization, 35 μL of 1 M ethanolamine pH 8 were loaded into the system in order to block any remaining free activated groups. The channel to be used as a negative control in each case received only the activating injections with the EDC:NHS solution and the blocking with ethanolamine, employing the same flow and injection volume. The results were analyzed using the BIAevaluation ver. 4.1 software application package (Biacore, Sweden).
In order to estimate the strength of the interaction between DIIIE2J and human A2M, 1600 RU of DIIIE2J were covalently immobilized on a CM5 chip (channel 1, FIG. 6A) (Biacore, Sweden), following the procedure described in the Materials and Methods section. […]

DV = assay: Inhibition of the infection of Vero cells with DV by pre-incubation of the virus with A2M; type: cell-based, dengue virus; settings: stated to correspond with the affinity constant for DIIIE2J
Description: (§2) FIG. 20. Inhibition of the infection of Vero cells with DV by pre-incubation with A2M. Viral preparations were incubated 1 h at 25° C. (A and C) or the indicated time (B) with the proteins i. e. activated A2M (A2Mact), non-activated A2M (A2M no act) and a non-related protein (NR). The mixtures of the proteins with the virus were added to monolayers of Vero cells and incubated for 1 h at 37° C. The cell monolayers were washed to eliminate non-bound virus. Next, medium MEM supplemented with non-essential amino acids and 1% FBS, 1% CMC was added and the cells were incubated for 5 days at 37° C. in a CO2 incubator. To visualize the viral plaques, Vero cells were stained using Naphtol Blue Black. All experimental points were performed on duplicates.
To obtain further evidences of the interaction of DV with A2M, the two variants of the protein i.e. activated and non-activated were used in assays of inhibition of infection of Vero cells. The viral preparation was incubated with solutions of activated A2M of higher concentrations than the physiological concentrations reached by this variant of the protein. Solutions of equimolar concentration of non-activated A2M and a non-related protein were used as negative controls. […]

serotype 1 of DV = assay: as above; type: cell-based, dengue virus; settings: FIG. 20C
Description: as §2

serotype 3 of DV = assay: as above; type: cell-based, dengue virus; settings: FIG. 20C
Description: as §2

Vero cells = assay: Binding of fluoresceinated proteins to the surface of Vero cells (flow cytometry); type: cell-based, monkey; settings: fluoresceinated proteins (FIG. 7A)
Description: FIG. 7. Inhibition of the binding of DIIIE2J to Vero cells by A2M and RAPR13. The pre-fixed cells were incubated with the fluoresceinated proteins, and the intensity of the fluorescence due to binding of the fluoresceinated ligands to the cells was measured by flow cytometry. Each experimental point represents data gathered from a minimum of 20 000 cells. (A) Binding of A2M and RAPR13 to the cells. The depicted values correspond to the average of the intensity of the fluorescence at each point of the assay minus the fluorescence obtained with untreated cells. (B) and (C) The cells were incubated with fluoresceinated DIIIE2J in the presence or absence of the non-fluoresceinated ligands, using the molar ratio indicated on each case. The % binding was calculated from the ratio of the average intensity of the fluorescence of the cells incubated with the mixture of fluoresceinated DIIIE2J plus the proteins, between that of the cells incubated only with fluoresceinated DIIIE2J.
In the case of cultured Vero cells, they were detached from the surface of the culture flask without using proteases, by incubation with PBS pH 7.4, 5 mM EDTA for 10 min. at 37° C., gently tapping the outside of the flask.
The cells, collected and washed as described above, were incubated in fixing solution (PBS pH 7.4, 2% paraformaldehyde, 0.01% NaN3, 1 mM CaCl2, 1 mM MgCl2 for 30 min at 4° C., and the fixing solution was then eliminated by centrifugation at 350×g for 5 min a 4° C. […] The intensity of the fluorescence was quantified by flow cytometry on a PAS III cytometer (Partec, Germany). The values for each experimental point were calculated from measurements on a minimum of 20 000 cells.
Given that this cell line is derived from monkey kidney cells and that the ligands for the A2MR receptor used in the assays are of human origin, a preliminary and necessary step was the corroboration of the binding of the RAPR13 and A2M MeNH2 proteins to Vero cells. With this aim, these proteins were fluoresceinated, and their binding to the surface of Vero cells was measured using flow cytometry. […]

## Purified A2MR: α-chain of the A2MR receptor purified from human plasma by affinity chromatography on immobilized MeNH2_A2M
DV2 [1]
  neutralization of the infection of DV2: potent neutralization
DV2 [2]
  protective effect in mice encephalitis model: significative protective effect

B1: activated A2M: purified human A2M activated by incubation with methylamine (protein)
chain: SVSGKPQYMVLVPSLLHTETTEKGCVLLSYLNETVTVSASLESVRGNRSLFTDLEAENDVLHCVAFAVPKSSSNEEVMFLTVQVKGPTQEFKKRTTVMVKNEDSLVFVQTDKSIYKPGQTVKFRVVSMDENFHPLNELIPLVYIQDPKGNRIAQWQSFQLEGGLKQFSFPLSSEPFQGSYKVVVQKKSGGRTEHPFTVEEFVLPKFEVQVTVPKIITILEEEMNVSVCGLYTYGKPVPGHVTVSICRKYSDASDCHGEDSQAFCEKFSGQLNSHGCFYQQVKTKVFQLKRKEYEMKLHTEAQIQEEGTVVELTGRQSSEITRTITKLSFVKVDSHFRQGIPFFGQVRLVDGKGVPIPNKVIFIRGNEANYYSNATTDEHGLVQFSINTTNVMGTSLTVRVNYKDRSPCYGYQWVSEEHEEAHHTAYLVFSPSKSFVHLEPMSHELPCGHTQTVQAHYILNGGTLLGLKKLSFYYLIMAKGGIVRTGTHGLLVKQEDMKGHFSISIPVKSDIAPVARLLIYAVLPTGDVIGDSAKYDVENCLANKVDLSFSPSQSLPASHAHLRVTAAPQSVCALRAVDQSVLLMKPDAELSASSVYNLLPEKDLTGFPGPLNDQDDEDCINRHNVYINGITYTPVSSTNEKDMYSFLEDMGLKAFTNSKIRKPKMCPQLQQYEMHGPEGLRVGFYESDVMGRGHARLVHVEEPHTETVRKYFPETWIWDLVVVNSAGVAEVGVTVPDTITEWKAGAFCLSEDAGLGISSTASLRAFQPFFVELTMPYSVIRGEAFTLKATVLNYLPKCIRVSVQLEASPAFLAVPVEKEQAPHCICANGRQTVSWAVTPKSLGNVNFTVSAEALESQELCGTEVPSVPEHGRKDTVIKPLLVEPEGLEKETTFNSLLCPSGGEVSEELSLKLPPNVVEESARASVSVLGDILGSAMQNTQNLLQMPYGCGEQNMVLFAPNIYVLDYLNETQQLTPEVKSKAIGYLNTGYQRQLNYKHYDGSYSTFGERYGRNQGNTWLTAFVLKTFAQARAYIFIDEAHITQALIWLSQRQKDNGCFRSSGSLLNNAIKGGVEDEVTLSAYITIALLEIPLTVTHPVVRNALFCLESAWKTAQEGDHGSHVYTKALLAYAFALAGNQDKRKEVLKSLNEEAVKKDNSVHWERPQKPKAPVGHFYEPQAPSAEVEMTSYVLLAYLTAQPAPTSEDLTSATNIVKWITKQQNAQGGFSSTQDTVVALHALSKYGAATFTRTGKAAQVTIQSSGTFSSKFQVDNNNRLLLQQVSLPELPGEYSMKVTGEGCVYLQTSLKYNILPEKEEFPFALGVQTLPQTCDEPKAHTSFQISLSVSYTGSRSASNMAIVDVKMVSGFIPLKPTVKMLERSNHVSRTEVSSNHVLIYLDKVSNQTLSLFFTVLQDVPVRDLKPAIVKVYDYYETDEFAIAEYNAPCSKDLGNA
[3]
  Kd: 100 nM
DV
  IC50: ~100 nM
Serotype 1 of DV
  infection of Vero cells by serotype 1 of DV: inhibited infection
Serotype 3 of DV
  infection of Vero cells by serotype 3 of DV: inhibited infection
Vero cells
  binding to the surface of Vero cells: concentration-dependant and saturable binding behavior
